Measurements: patent US20250019453A1 (SYNTHEKINE, published 2025)

T1: mIL2Rb ECD antigen (murine, UniProt P16297 27-240)
T1 construct: The immunogen was the ECD fused to human IgG1 hinge and Fc; also called ECD of IL2Rb (mouse)
T1 sequence: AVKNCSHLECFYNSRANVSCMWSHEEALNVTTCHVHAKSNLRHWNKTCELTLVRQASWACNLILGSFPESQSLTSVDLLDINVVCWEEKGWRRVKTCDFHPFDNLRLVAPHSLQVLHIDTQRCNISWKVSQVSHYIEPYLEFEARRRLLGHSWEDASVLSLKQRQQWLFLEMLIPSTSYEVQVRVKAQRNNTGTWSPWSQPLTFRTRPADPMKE

B1: DR1460 (VHH)
VHH: EVQLVESGGGLVQTGDSLRLSCAAPESIFNNNAVYWYRQFPGKEREYVGLITIGGRTGYADSVKGRFTISRDNANNVAFLQMDSLKPEDTAVYYCATGLKFGFNFYSKTAYDYWGQGTQVTVSS
notes: As a his-tagged phage clone periplasmic extract
B2: DR1455 (VHH)
VHH: EVQLVESGGGLVQTGGSLRLSCAASGRTFNSYAMGWFRQSPGKEREFVAVITWNSGRTYYADSVKGRFTISRDNAKNTVYLQMNSLKPEDTAVYYCNSAPWAHNREWGQGTLVTVSS
notes: as for B1
B3: DR1458 (VHH)
VHH: EVQLVESGGGLVQAGGSLRLSCAASGRTLSTYAMGWFRQAPGKEREFVAAIRWASGRTYYGDSVKGRFTISRDSAKNTVYLQMNSLKPEDTAVYYCAARSRPYLNYGDFGYWGQGTQVTVSS
notes: as for B1
B4: DR1468 (VHH)
VHH: EVQLVESGGGLVQAGGSLRLSCTTSGRTGTHYAMGWFRQAPGKEREFVSLILWNGEFTTYKDSVKGRFTISREKGENTVYLQMNSLKPEDTAVYYCYLRVFARRYWGQGTQVTVSS
notes: as for B1
B5: DR1449 (VHH)
VHH: EVQLVESGGGLVQAGGSLRLSCAASGRSFSGYAIGWFRQAPGKEREFVAVVSWRGSSTYYADSVKGRFTISRDNAKGTVYLQMNSLKPEDTAAYYCAAVPSGRSWYGRNRYWGQGTQVTVSS
notes: as for B1
B6: DR857 (VHH)
VHH: QVQLQESGGGLVQPGGSLRLSCAASGFTFSLYDMSWVRQAPGKGLEWVSGINSGGYSTYYAASAKGRFTISRDNAKNTLYLQLSSVKTEDTAMYYCAQRGLTSPYVIPNIRLQGTQVTVSS
notes: as for B1
B7: DR1461 (VHH)
VHH: EVQLVESGGRLVQAGDSLRLSCVASGRIFNTYSMGWFRQVPGKERDFVAAIRWSGGTTYYTDSVKGRFTISRDNAKNTVYLQMKDLKPQDTAVYYCAAVPSGRSWYGRNRYWGQGTLVTVSS
notes: as for B1
B8: DR1457 (VHH)
VHH: EVQLVESGGRLVQAGDSLRLSCVASGRIFNTYSMGWFRQVPGKERDFVAAIRWSGGTTYYTDSVKGRFTISRDNAKNTVYLQMNSLKPEDTAVYYCYLRVFARRYWGQGTQVTVSS
notes: as for B1
B9: DR1459 (VHH)
VHH: EVQLVESGGGLVQAGGSLRLSCAASGRTISTYAMVWFRQASGKEREFVGVISRSGDRTYYADSVKGRFTISRDNLGNIVRLQLNSLKPEDTAVYYCARGGYTGIETITARGRGTLVTVSS
notes: as for B1
B10: DR1451 (VHH)
VHH: EVQLVESGGGLVQAGDSLRLSCAASERFSWGNYAMYWFRQAPGKEREFVAAIGRNSMATYYRDSAKGRFVISRDNAKNTLYLEMNALKPEDTARYYCAAKFMVADGWSRQYDYWGQGTLVTVSS
notes: as for B1
B11: DR1453 (VHH)
VHH: EVQLVESGGRLVQAGDSLRLSCVASGRIFNTYSMGWFRQVPGKERDFVAAIRWSGGTTYYTDSVKGRFTISRDNAKNTVYLQMNSLKPEDTAVYYCWVRVRLSNTALLQRYWGQGTLVTVSS
notes: as for B1
B12: DR1469 (VHH)
VHH: EVQLVESGGGLVQPGGSLRLSCEVSGFTFSNYWMYWIRQAPGKGLEWVSHINTNGGNTYYRHSVKGRFTISRDNAKNTLYLQMNGLKSEDTAVYYCAKANSDVGLGYYGMDYWGKGTQVTVSS
notes: as for B1
B13: DR1450 (VHH)
VHH: EVQLVESGGGLVQAGGSLRLSCVISGRSINYYRMGWFRQAPGNRRQFVAAIKWGGDGVYADSVKGRFTISRDNTKNTVYLQMDSLKPEDTGTYYCAKMPLSSWSRGGYLEVWGQGTLVTVSS
notes: as for B1
B14: DR1462 (VHH)
VHH: EVQLVESGGGLVQAGGSLRLSCVSSGRTFGYVAMGWFRQAPGKEREFVASINWSGGSTAYADSVKGRFTISRDNAKNTVYLQMNSLKPEDTAVYYCAGSTRFYIATMEQGSYDYWGQGTQVTVSS
notes: as for B1
B15: DR1452 (VHH)
VHH: EVQLVESGGGLVQAGGALRLSCAASGRTFRRFMGWFRQAPGKEREFVAAINWPGGGTYYGDSVKGRFTISRDNAKNTVYLQMNSLKPEDTANYYCAATRKYNLYKFADWGQGTQVTVSS
notes: as for B1
B16: DR1463 (VHH)
VHH: EVQLVESGGSVVQPGDSLRLACTASGRSFRSYAIGWFRQASGKERVFVAAISYDGRRTYYGRSLKDRFTISRDNAKNTVYLQMNSLKPEDTAVYYCATHRSGTMFARYGMDYWGKGTLVTVSS
notes: as for B1
B17: DR1464 (VHH)
VHH: EVQLVESGGGLVQAGGSLRLSCAASGRTFSSYAMGWFRQAPGKEREFVTAISRSGGYTSYADSVKGRFTISRDNAKNTVYLQMNSLKPEDTAVYYCAKLIAPFYYGMDYWTKGTQVTVSS
notes: as for B1
B18: DR1467 (VHH)
VHH: EVQLVESGGGLVQAGDSLRLSCAASGRISNYAMGWFRQAPGKEREFVAVITRSGGSTYYADSVKGRFTISRDNGKNTIDLQMNRLKPEDTAVYYCAVRRSQKLVTFGAEYPWWGQGTLVTVSS
notes: as for B1
B19: DR1454 (VHH)
VHH: EVQLVESGGGLVQAGGSLRLFCASSERTFGDYPIGWFRQAPGKEREFVASISWGGSRQYYTDSVKGRFTITRDNDKNTVYLQMNSLKPEDTAVYYCWVRVRLSNTALLQRYWGQGTLVTVSS
notes: as for B1
B20: DR1456 (VHH)
VHH: EVQLVESGGGLVQAGGSLRLSCAASGLTFRTYYMSWFRQAPGKEREFVGVISWIGSTTLYADSVKGRFSISRDNAKNTVYLQMNNLKPEDTAVYYCAANFLREGKREPRYWGQGTQVTVSS
notes: as for B1
B21: DR1466 (VHH)
VHH: EVQLVESGGGLVRAGGSLRLSCAASGFTFSTDWMYWVRRAPGKGLEWVSLINTDGTSTSYTKSVKGRFTVSRDNAKNTLYLQMNSLKPEDTALYYCARGRTYWFYAMDYWGKGTQVTVSS
notes: as for B1
B22: DR1448 (VHH)
VHH: EVQLVESGGRLVQAGDSLRLSCVASGKSFSDYPLGWFRQAPGKAREYVAHISWSGKLTYYRSTVKGRFTISRDNAENKLYLQMNALKPEDTAVYYCAAMKLFNYGGRYCVLKPLTMYQQWSQGTQVTVSS
notes: as for B1
B23: DR1470 (VHH)
VHH: EVQLVESGGGSVQPGGSLRLSCAAPESIFNNNAVYWYRQFPGKEREYVGLITIGGRTGYADSVKGRFTISRDNANNVAFLQMDNLKPEDTAVYYCAARPGYWSSSYDYWGQGTQVTVSS
notes: as for B1
B24: DR1465 (VHH)
VHH: EVQLVESGGGLMQAGGALRLSCTASGPTFTSYTMGWFRQSPGKRREFVAVISKGGRTYYADSVKGRFTISRDNAKNTFYLQMSSLKPEDTAVYYCAGQRVGATSKYEYDYWGQGTQVTVSS
notes: as for B1

The binders below were run against T1, mIL2Rb ECD antigen (assay: PE-ELISA of phage clones).
B1: binds.
B2: binds.
B3: binds.
B4: binds.
B5: binds.
B6: binds.
B7: binds.
B8: binds.
B9: binds.
B10: binds.
B11: binds.
B12: binds.
B13: binds.
B14: binds.
B15: binds.
B16: binds.
B17: binds.
B18: binds.
B19: binds.
B20: binds.
B21: binds.
B22: binds.
B23: binds.
B24: binds.
